From US10709762B2, “Use of M-CSF for preventing or treating myeloid cytopenia and related complications” (priority 2013, dated 2020) come the findings set out here.

The test system of experiment [1] is Pseudomonas aeruginosa. Put plainly: Survival after Pseudomonas aeruginosa infection following HS/PC transplantation. The class given is in vivo, mice. The settings on record: P. aeruginosa infection on Day8 after irradiation and HS/PC transplantation; three injections of 10 μg M-CSF. As to the method: (§1) To study the functional impact of MCSF mediated HSC commitment during infections, two separate series of experiments were performed. In all experiments, after lethal irradiation of recipients, 2500 HS/PC with 200,000 cKit-carrier cells from donors were grafted.
(§2) Uninfected mice that received HS/PC transplants served as controls for efficient life saving transplantation (black line; FIGS. 8A, 8B and FIGS. 10A, 10B; n=8). Two other groups of mice received either 3 injections of MCSF (rhMCSF or Bacculo virus produced mMCSF) or PBS on the day of HS/PC transplantation.
(§3) One-week post transplantation these mice were challenged with lethal doses of either the bacteria Pseudomonas aeruginosa or the opportunistic fungus Aspergillus fumigatus.
CD45.1 and C57Bl/6 mice were obtained from Charles River. 10-14 weeks old sex-matched CD45.2 recipients were reconstituted as described^3 with bone marrow derived KSL (c-Kit(CD117)+, Sca+, Lin−) HS/PC isolated from 6-8 weeks old CD45.1. For in vivo injections the indicated concentrations of M-CSF and/or sorted cells were injected in 100-200 μl of PBS into the retro-orbital sinus. For HS/PC transplantation 2500 KLS HS/PC were sorted from CD45.1 mice and mixed with 200,000 cKit− CD45.2 or cKit−, Terr119+ carrier cells prior to injection into lethally irradiated (160 kV, 25 mA, 6.31 Gy) CD45.2 recipient mice. […]

Experiment [2] deals with Aspergillus fumigatus. Put plainly: Survival after Aspergillus fumigatus infection following HS/PC transplantation. It is filed as in vivo, mice. The note with it: A. fumigatus infection on D8 after irradiation and HS/PC transplantation; three injections of 10 μg M-CSF. As to the method: as §1, §2, §3
Each mouse received three injections of 10 μg M-CSF: 1 h before HS/PC transplantation; 6 h and 18 h post-transplantation. Human M-CSF (rhMCSF, Chiron Corporation Inc., USA, now part of Novartis AG) and Mouse M-CSF was expressed in baculovirus (Bac. virus mMCSF^56) were used for the study.
Aspergillus fumigatus FGSC 1100 was provided by the Centre International de Ressources Microbiennes—Champignons Filamenteux (CIRM-CF, Marseille, France). For each experiment, cultures were grown on Malt agar medium (2% malt extract, 2% Bacto-agar DIFCO) for 5 days at 25° C. Conidial suspension was prepared in sterile saline according to Bitmansour et al. (2002)^55. […]

The subject of experiment [3] is PU.1 expression in sorted HSC. In words: Quantitative RT-PCR of PU.1 expression in sorted HSC in culture. The class given is cell-based, mice. The settings on record: 16 h in culture with cytokine, 100 ng/ml. As for the experimental part:
CD150+CD34− KSLF HSC or CD150+CD34− CD48− KSLF HSC (single cells) were sorted into S-clone SF-03 medium (Sanko Jyunyaku) with 10% FBS supplemented with 100 U/ml penicillin and […] streptomycin (both Invitrogen) and cultivated in uncoated U-Shape 96 well plates (Greiner) in 100 μl SCM, 20 ng/ml rSCF, 50 ng/ml rTPO+/−100 ng/ml rM-CSF or 100 ng/ml rGM-CSF or 100 ng/ml rG-CSF. All cytokines were murine and from PeproTech. Cell viability was analyzed by AnnexinV and Propidium iodide FACS staining^35.
Total RNA was isolated and reverse transcribed with μMACS™ ONE-STEP T7 template kit (Miltenyi Biotec) and analysed by quantitative real-time PCR using TAQMAN® Universal PCR Master Mix and a 7500 Fast Real Time PCR System sequence detection system (both Applied Biosystem), following the manufacturers' instructions.

The test system of experiment [4] is Pseudomonas aeruginosa. In words: Bacterial tissue load quantification. It is filed as in vivo, mice. The note with it: 18 h after infection. As for the experimental part:
The infected mice were killed; the organs (spleen, lungs, liver and heart) were harvested and weighed. To determine CFUs per gram of tissue serial dilutions of tissue homogenates were prepared in PBS and plated on Pseudomonas Isolation Agar (PIA) (Difco laboratories) supplemented with appropriate antibiotics and incubated overnight at 37° C. The colonies were counted after 16-24 h.
For analysis of bacterial load, mice were killed at 18 h after infection, tissue homogenates were prepared from spleen, lungs, liver and heart, and were plated to determine CFU.

The test system of experiment [5] is Aspergillus fumigatus. In words: Fungal culture of infected organs. It is filed as in vivo. The settings on record: lungs, liver and heart; 48 h after infection; versus untreated mice. As to the method:
The organs (lungs, liver, heart and spleen) were harvested, weighed and tissue homogenates were prepared in PBS. The homogenates were serially diluted and 200 μL or each dilution was plated on Sabouraud dextrose agar (DIFCO). The plates were incubated at 25° C. and pictures were taken after 3-5 days.
Furthermore in the mice succumbing to infection death was slightly delayed from D9-D14 in untreated mice to D10-D15 in the rhMCSF treated group. For analysis of fungal load, mice were killed at 48 h after infection and tissue homogenates were prepared from lungs, liver and heart. […] Fungal tissue cultures were incubated beyond 96 h to verify the typical colony morphology of A. fumigatus.

B1: mouse MCSF: Mouse M-CSF expressed in baculovirus (protein, UniProt P07141 33-552, looked up)
Macrophage colony-stimulating …: KEVSEHCSHMIGNGHLKVLQQLIDSQMETSCQIAFEFVDQEQLDDPVCYLKKAFFLVQDIIDETMRFKDNTPNANATERLQELSNNLNSCFTKDYEEQNKACVRTFHETPLQLLEKIKNFFNETKNLLEKDWNIFTKNCNNSFAKCSSRDVVTKPDCNCLYPKATPSSDPASASPHQPPAPSMAPLAGLAWDDSQRTEGSSLLPSELPLRIEDPGSAKQRPPRSTCQTLESTEQPNHGDRLTEDSQPHPSAGGPVPGVEDILESSLGTNWVLEEASGEASEGFLTQEAKFSPSTPVGGSIQAETDRPRALSASPFPKSTEDQKPVDITDRPLTEVNPMRPIGQTQNNTPEKTDGTSTLREDHQEPGSPHIATPNPQRVSNSATPVAQLLLPKSHSWGIVLPLGELEGKRSTRDRRSPAELEGGSASEGAARPVARFNSIPLTDTGHVEQHEGSSDPQIPESVFHLLVPGIILVLLTVGGLLFYKWKWRSHRDPQTLDSSVGRPEDSSLTQDEDRQVELPV
With B1, the survival is given as 87.5% in the experiment with Pseudomonas aeruginosa [1] and 60% with Aspergillus fumigatus [2].

B2: G-CSF: murine granulocyte colony-stimulating factor from PeproTech (protein, UniProt P09920 31-208, looked up)
Granulocyte …: VPLVTVSALPPSLPLPRSFLLKSLEQVRKIQASGSVLLEQLCATYKLCHPEELVLLGHSLGIPKASLSGCSSQALQQTQCLSQLHSGLCLYQGLLQALSGISPALAPTLDLLQLDVANFATTIWQQMENLGVAPTVQPTQSAMPAFTSAFQRRAGGVLAISYLQGFLETARLALHHLA
Regarding B2, in experiment [3], the “PU.1 expression in FACS purified HSC” value was “not”.

B3: rhMCSF: Human M-CSF (rhMCSF, Chiron Corporation Inc., USA, now part of Novartis AG) (protein, UniProt P09603 33-554, looked up)
Macrophage colony-stimulating …: EEVSEYCSHMIGSGHLQSLQRLIDSQMETSCQITFEFVDQEQLKDPVCYLKKAFLLVQDIMEDTMRFRDNTPNAIAIVQLQELSLRLKSCFTKDYEEHDKACVRTFYETPLQLLEKVKNVFNETKNLLDKDWNIFSKNCNNSFAECSSQDVVTKPDCNCLYPKAIPSSDPASVSPHQPLAPSMAPVAGLTWEDSEGTEGSSLLPGEQPLHTVDPGSAKQRPPRSTCQSFEPPETPVVKDSTIGGSPQPRPSVGAFNPGMEDILDSAMGTNWVPEEASGEASEIPVPQGTELSPSRPGGGSMQTEPARPSNFLSASSPLPASAKGQQPADVTGTALPRVGPVRPTGQDWNHTPQKTDHPSALLRDPPEPGSPRISSLRPQGLSNPSTLSAQPQLSRSHSSGSVLPLGELEGRRSTRDRRSPAEPEGGPASEGAARPLPRFNSVPLTDTGHERQSEGSFSPQLQESVFHLLVPSVILVLLAVGGLLFYRWRRRSHQEPQRADSPLEQPEGSPLTQDDRQVELPV
For the molecule B3, the results for the survival in the experiment on Pseudomonas aeruginosa [1] and with Aspergillus fumigatus [2] were 50% and 40%, respectively. Further, the moribund mice entry with Pseudomonas aeruginosa [4] is recorded as “two to three of the 10 mice”. Further, the “tissue load of bacteria” value with Pseudomonas aeruginosa [4] (spleen, lungs, liver and heart, versus untreated mice) is given as “significant decrease”. The “tissue load of fungal colonies” value with Aspergillus fumigatus [5] is reported as “significant decrease”.

B4: GM-CSF: murine granulocyte-macrophage colony-stimulating factor from PeproTech (protein, UniProt P01587 18-141, looked up)
Granulocyte-macrophage …: APTRSPITVTRPWKHVEAIKEALNLLDDMPVTLNEEVEVVSNEFSFKKLTCVQTRLKIFEQGLRGNFTKLKGALNMTASYYQTYCPPTPETDCETQVTTYADFIDSLKTFLTDIPFECKKPGQK
Regarding B4, the “PU.1 expression in FACS purified HSC” value in experiment [3] is listed as “not”.
